According to PMC8804906, “Crystal structure of Pseudomonas aeruginosa FabB C161A, a template for structure-based design for new antibiotics” (F1000Research, 2021):

Biological target: the molecule itself
Test: crystal structure; PaFabB C161A lacking the His-tag (9-23 mg/mL) in 20 mM Tris-HCl, 150 mM NaCl, 1 mM DTT, pH 7.4; sitting drop, 20°C; 0.2 M sodium iodide, 0.1 M Bis-Tris propane pH 7.5, PEG 3350, ethylene glycol; space group C 2 2 21, 2 protein molecules in the asymmetric unit; 1.3 Å

B1: Pseudomonas aeruginosa FabB C161A (3-oxoacyl-[acyl-carrier-protein] synthase 1), without His-tag (enzyme)
chain: MRRVVITGLGIVSCLGNDKDTVSANLRAGRPGIRFNPSYAEMGLRSHVSGSVDLNLEELIDRKVFRFMGDAAAYAYLAMEQAIKDSGLTPEQISNPRTGLIAGSGGASTLNQMEAIDTLREKGVKRIGPYRVTRTMGSTVSACLATPFQIKGVNYSISSAAATSAHCIGQAMEQIQLGKQDVVFAGGGEEEHWSQSCLFDAMGALSTQYNETPEKASRAYDAKRDGFVIAGGGGMVVVEELEHALKRGAKIYAEIVGYGATSDGYDMVAPSGEGAIRCMQQALATVDAPIDYLNTHGTSTPVGDVAEIRGVREVFGDKAPAISSTKSLSGHSLGAAGVHEAIYCLLMMEGGFIAGSANIDELDPEVADLPILRETRENAKLDTVMSNSFGFGGTNATLVLKRWQG
notes: FabB (3-oxoacyl-[acyl-carrier-protein] synthase 1) of P. aeruginosa PA14, ORF PA14_43690, with the point mutation C161A; gene synthesised and cloned NdeI/BamHI into pET-28a(+)-TEV; 808 protein residues modelled in the dimer; also called PaFabB C161A; cleaved PaFabB C161A; not shown: His6, N-terminal, cleaved
- stoichiometry N: 2
